Results from the supplement of paper PMC10065799, “High-throughput profiling of sequence recognition by tyrosine kinases and SH2 domains using bacterial peptide display” (eLife, 2023).

What was measured:
c-Src SH2 = assay: SH2 binding enrichment of the phosphorylated peptide, bacterial display (enrichment ratio); higher = better substrate or ligand; peptides without Tyr show the background
Grb2 SH2 = Grb2 SH2 (UniProt P62993); assay: as above
SHP2-C SH2 = assay: as above
FGFR3 = FGFR3 (UniProt P22607); assay: phosphorylation enrichment, bacterial display (enrichment ratio); higher = better substrate or ligand; peptides without Tyr show the background
Fer (mouse) = assay: as above
MERTK = MERTK (UniProt Q12866); assay: as above
Chain of MERTK (Q12866 whole entry, looked up): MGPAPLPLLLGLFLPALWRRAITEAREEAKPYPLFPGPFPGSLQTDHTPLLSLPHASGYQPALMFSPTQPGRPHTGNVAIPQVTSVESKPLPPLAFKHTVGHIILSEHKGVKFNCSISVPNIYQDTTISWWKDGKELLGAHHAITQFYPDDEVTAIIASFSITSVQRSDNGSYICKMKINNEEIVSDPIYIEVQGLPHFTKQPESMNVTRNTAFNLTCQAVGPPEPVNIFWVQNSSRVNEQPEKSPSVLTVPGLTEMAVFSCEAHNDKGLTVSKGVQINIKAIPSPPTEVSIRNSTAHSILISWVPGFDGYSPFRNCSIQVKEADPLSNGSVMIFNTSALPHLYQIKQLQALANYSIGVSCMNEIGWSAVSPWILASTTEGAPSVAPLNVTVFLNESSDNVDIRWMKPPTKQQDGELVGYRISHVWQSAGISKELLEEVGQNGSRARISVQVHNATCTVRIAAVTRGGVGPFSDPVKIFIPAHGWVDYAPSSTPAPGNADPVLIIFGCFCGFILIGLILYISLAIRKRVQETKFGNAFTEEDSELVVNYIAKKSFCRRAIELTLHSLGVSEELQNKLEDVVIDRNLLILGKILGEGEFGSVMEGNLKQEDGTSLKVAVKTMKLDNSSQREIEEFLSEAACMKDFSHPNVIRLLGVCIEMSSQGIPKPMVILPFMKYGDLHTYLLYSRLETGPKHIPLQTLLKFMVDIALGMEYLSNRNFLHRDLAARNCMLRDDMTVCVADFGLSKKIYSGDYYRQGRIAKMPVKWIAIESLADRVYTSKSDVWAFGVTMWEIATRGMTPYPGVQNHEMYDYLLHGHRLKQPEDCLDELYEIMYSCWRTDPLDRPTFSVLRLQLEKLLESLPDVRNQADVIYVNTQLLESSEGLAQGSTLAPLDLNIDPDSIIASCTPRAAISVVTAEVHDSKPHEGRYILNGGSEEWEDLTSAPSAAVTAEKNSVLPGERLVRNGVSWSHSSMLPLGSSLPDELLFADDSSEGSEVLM

Jak2 = Jak2 (UniProt O60674); assay: as above
AncSZ = assay: as above
EPHB1 = EPHB1 (UniProt P54762); assay: as above
Chain of EPHB1 (P54762 whole entry, looked up): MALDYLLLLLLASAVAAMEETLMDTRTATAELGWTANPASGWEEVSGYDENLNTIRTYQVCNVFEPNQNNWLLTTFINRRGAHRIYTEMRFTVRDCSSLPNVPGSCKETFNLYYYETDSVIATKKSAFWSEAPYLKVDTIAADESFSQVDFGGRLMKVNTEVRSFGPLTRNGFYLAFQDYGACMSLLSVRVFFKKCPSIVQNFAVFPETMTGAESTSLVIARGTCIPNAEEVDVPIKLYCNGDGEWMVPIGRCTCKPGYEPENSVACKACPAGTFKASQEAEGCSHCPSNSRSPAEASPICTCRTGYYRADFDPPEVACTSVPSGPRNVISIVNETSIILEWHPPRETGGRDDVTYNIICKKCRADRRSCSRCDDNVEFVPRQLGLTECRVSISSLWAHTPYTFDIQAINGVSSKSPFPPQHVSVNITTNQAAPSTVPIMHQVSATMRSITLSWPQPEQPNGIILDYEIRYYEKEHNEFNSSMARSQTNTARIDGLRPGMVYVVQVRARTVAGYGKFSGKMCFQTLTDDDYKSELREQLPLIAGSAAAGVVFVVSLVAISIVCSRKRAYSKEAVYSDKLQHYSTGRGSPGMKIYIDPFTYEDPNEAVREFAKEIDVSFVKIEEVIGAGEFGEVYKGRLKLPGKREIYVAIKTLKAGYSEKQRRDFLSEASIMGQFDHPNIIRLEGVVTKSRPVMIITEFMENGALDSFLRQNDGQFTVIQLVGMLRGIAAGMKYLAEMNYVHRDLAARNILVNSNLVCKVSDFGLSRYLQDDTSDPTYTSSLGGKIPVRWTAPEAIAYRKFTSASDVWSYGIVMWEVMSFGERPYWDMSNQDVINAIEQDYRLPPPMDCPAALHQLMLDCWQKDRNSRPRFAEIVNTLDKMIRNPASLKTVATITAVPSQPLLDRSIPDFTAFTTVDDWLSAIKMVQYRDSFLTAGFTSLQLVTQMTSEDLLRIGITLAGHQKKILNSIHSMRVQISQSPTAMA

Hck = Hck (UniProt P08631); assay: as above
Chain of Hck (P08631 whole entry, looked up): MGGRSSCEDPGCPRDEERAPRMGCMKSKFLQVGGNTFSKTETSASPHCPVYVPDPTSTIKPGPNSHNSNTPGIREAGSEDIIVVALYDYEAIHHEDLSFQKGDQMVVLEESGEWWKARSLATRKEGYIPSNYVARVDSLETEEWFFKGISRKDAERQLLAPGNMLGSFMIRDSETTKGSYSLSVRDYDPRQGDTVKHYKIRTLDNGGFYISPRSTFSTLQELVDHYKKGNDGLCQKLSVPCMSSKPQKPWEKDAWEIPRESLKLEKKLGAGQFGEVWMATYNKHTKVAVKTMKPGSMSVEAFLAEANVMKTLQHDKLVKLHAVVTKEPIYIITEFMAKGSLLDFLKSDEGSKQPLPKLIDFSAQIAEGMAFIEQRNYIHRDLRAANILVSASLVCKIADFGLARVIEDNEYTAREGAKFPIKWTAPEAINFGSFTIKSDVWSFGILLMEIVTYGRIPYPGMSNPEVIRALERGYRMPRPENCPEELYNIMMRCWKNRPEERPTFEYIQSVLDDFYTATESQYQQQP

c-Src = assay: as above
c-Abl (mouse) = assay: as above
EPHB2 = EPHB2 (UniProt P29323); assay: as above
Fes = Fes (UniProt P07332); assay: as above
Chain of Fes (P07332 whole entry, looked up): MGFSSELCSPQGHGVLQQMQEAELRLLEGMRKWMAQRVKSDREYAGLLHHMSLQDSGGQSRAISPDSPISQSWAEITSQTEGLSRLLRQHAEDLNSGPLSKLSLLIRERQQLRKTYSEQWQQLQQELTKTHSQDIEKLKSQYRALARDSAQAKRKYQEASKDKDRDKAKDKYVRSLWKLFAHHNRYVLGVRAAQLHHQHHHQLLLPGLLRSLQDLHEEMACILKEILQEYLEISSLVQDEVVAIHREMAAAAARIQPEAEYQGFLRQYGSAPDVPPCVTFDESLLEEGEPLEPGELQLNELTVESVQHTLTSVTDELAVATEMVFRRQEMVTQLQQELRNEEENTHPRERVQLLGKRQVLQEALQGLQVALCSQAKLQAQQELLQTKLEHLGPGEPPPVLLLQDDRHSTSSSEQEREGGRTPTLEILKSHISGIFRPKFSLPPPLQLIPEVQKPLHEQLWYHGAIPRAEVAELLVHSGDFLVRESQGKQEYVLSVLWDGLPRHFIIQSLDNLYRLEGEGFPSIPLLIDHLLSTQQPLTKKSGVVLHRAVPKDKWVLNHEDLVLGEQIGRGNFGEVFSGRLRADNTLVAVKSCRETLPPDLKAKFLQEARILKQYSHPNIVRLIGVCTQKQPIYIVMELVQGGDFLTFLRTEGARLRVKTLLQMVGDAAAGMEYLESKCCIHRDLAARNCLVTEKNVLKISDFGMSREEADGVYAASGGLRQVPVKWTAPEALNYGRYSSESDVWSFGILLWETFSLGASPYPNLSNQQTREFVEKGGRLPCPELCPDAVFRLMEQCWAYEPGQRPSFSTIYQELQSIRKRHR

FGFR1 = FGFR1 (UniProt P11362); assay: as above
Chain of FGFR1 (P11362 whole entry, looked up): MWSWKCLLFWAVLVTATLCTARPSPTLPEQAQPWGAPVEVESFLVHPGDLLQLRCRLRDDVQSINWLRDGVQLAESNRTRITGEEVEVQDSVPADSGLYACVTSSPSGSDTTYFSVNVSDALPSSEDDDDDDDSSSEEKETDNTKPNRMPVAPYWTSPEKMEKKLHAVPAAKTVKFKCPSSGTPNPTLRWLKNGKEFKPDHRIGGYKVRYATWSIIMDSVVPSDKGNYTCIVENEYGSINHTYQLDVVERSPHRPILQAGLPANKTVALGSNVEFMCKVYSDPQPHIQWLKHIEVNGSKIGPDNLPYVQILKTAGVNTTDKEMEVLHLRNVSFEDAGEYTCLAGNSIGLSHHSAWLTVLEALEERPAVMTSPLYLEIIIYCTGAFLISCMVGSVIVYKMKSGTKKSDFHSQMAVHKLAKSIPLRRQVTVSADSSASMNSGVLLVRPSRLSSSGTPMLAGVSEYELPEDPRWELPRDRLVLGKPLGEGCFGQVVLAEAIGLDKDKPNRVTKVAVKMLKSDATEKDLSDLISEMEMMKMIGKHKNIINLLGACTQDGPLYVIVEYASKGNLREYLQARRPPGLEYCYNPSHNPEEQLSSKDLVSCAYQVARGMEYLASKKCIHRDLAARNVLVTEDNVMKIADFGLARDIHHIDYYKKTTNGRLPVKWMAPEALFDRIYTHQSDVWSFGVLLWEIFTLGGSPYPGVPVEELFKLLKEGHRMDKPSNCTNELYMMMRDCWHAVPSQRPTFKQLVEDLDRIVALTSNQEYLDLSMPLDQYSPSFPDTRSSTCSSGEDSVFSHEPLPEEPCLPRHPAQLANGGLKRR

Fyn = Fyn (UniProt P06241); assay: as above
Chain of Fyn (P06241 whole entry, looked up, the tested form may be a part): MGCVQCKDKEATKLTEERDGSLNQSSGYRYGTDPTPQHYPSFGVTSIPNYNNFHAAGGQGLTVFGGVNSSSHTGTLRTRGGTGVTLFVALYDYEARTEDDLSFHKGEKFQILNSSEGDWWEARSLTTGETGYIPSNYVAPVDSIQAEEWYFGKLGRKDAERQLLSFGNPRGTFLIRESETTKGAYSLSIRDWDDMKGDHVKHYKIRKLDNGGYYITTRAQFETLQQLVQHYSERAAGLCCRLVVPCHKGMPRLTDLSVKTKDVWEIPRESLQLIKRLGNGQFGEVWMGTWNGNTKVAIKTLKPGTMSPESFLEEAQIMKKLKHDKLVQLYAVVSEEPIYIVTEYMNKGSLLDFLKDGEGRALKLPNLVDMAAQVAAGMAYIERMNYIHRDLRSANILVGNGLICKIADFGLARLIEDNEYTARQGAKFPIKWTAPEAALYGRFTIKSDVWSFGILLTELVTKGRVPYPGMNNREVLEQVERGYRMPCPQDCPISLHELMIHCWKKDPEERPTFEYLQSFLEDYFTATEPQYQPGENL
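For SH2 binding enrichment of the phosphorylated peptide, bacterial display in this document: peptide library displayed on the E. coli surface as eCPX fusions, selected cells deep-sequenced, score is each peptide's frequency after selection divided by its frequency in the input.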
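For phosphorylation enrichment, bacterial display in this document: 11-residue human phosphosite peptides and single-mutation variants displayed on the E. coli surface, counted by deep sequencing, each peptide's frequency after selection divided by its frequency in the unselected input library; frequency after pTyr selection over input frequency; kinase dosed for 20-30% of maximal phosphorylation in three min.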

Chain of Grb2 SH2 (P62993 whole entry, looked up): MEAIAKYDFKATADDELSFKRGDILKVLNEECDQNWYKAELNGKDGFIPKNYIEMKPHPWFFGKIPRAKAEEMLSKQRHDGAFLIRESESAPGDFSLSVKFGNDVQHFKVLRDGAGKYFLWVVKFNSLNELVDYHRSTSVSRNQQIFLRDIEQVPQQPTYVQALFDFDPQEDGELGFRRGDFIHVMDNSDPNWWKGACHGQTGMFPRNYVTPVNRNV

Sequence	SH2 binding enrichment (c-Src SH2)	SH2 binding enrichment (Grb2 SH2)	SH2 binding enrichment (SHP2-C SH2)	phosphorylation enrichment (FGFR3)	phosphorylation enrichment (Fer (mouse))	phosphorylation enrichment (MERTK)	phosphorylation enrichment (Jak2)	phosphorylation enrichment (AncSZ)	phosphorylation enrichment (EPHB1)	phosphorylation enrichment (Hck)	phosphorylation enrichment (c-Src)	phosphorylation enrichment (c-Abl (mouse))	phosphorylation enrichment (EPHB2)	phosphorylation enrichment (Fes)	phosphorylation enrichment (FGFR1)	phosphorylation enrichment (Fyn)
QKTGDYFDLFG [PTPN11_Y62_N58K_YF]	0.583	1.02	0.854	17	0.434	1.04	7.57	2.17	11	0.442	0.639	0.815	6.35	1.04	20.1	0.971
EALSLYTKLMN [STAM_Y371]	1.02	0.713	1.41	0.856	0.509	0.411	1.49	1.39	0.615	0.505	0.551	0.832	0.639	1.48	0.391	0.402
EVGHVYLFLQP [ITGA2B_Y360_R358H]	0.425	0.755	0.669	0.893	0.618	0.393	1.42	1.33	0.735	0.5	0.434	0.885	0.679	1.42	0.512	0.472
KNNDGYTDYAE [MCFD2_Y135_I136T]	1.79	0.766	0.588	0.597	0.381	0.458	0.831	0.941	0.475	0.461	0.383	0.85	0.57	1	0.515	0.463
MWGSDYVHLSR [MAP3K4_Y582_Q584H]	0.568	0.914	0.746	1.82	0.417	0.53	1.72	0.951	3.2	0.486	0.471	0.804	1.47	0.693	3.31	0.472
PDMHSYVVRFN [GRIN2D_Y732_M733V_YF]	1.25	1.29	1	0.797	0.411	0.531	1.81	0.882	0.658	0.431	0.553	0.873	0.464	1.04	0.78	0.467
LITTLYIDFLG [KCNQ1_Y267_G269D]	0.698	1.13	0.96	1.19	0.749	0.704	1.39	1.42	1.15	0.818	1.22	1.07	1.06	1.96	1.09	1.41
PRSRSYFSTSI [REPS2_Y462_S463F]	0.769	1.08	0.906	0.574	0.436	0.496	0.635	0.623	0.478	0.691	0.677	0.452	0.797	0.791	0.457	0.468
RKKEEYKMALY [F8_Y1990]	0.931	1.38	0.762	0.33	0.289	0.462	0.477	0.492	0.337	1.05	0.546	0.632	0.387	0.708	0.58	0.46
SAQHHYESLQT [BIN1_Y157_R154Q]	36.4	0.781	0.903	0.442	0.703	0.504	0.484	0.763	0.463	0.513	0.433	0.601	0.402	0.622	0.47	0.418
WRPFGYPRRRR [BCS1L_Y181]	0.349	0.731	0.66	0.522	0.462	0.487	0.494	0.615	0.486	0.453	0.446	0.444	0.481	0.513	0.367	0.518
KNNSIYVVANI [VNN1_Y134]	0.671	1.08	1.05	0.821	0.727	0.885	1.04	0.982	0.74	0.888	0.705	0.8	0.761	1.14	0.701	0.765
LTSKPYAFTAW [NDUFS1_Y236_R241W]	0.749	1.01	0.992	0.511	0.448	1.12	0.682	0.575	0.421	0.353	0.4	0.503	0.544	0.717	0.413	0.371
PFSNPYENSLI [EPOR_Y489_YF]	4.88	15.5	0.501	1.02	2.23	0.675	3.41	1.92	0.92	0.848	1.01	1.18	0.929	1.48	0.964	1.04
PGVDIYISPNM [PADI3_Y51]	0.366	0.728	0.592	1.11	0.814	0.534	1.75	1.64	1.17	1.38	0.894	1.68	0.973	1.8	1.67	1.02
LLNPRYNLPLD [TOM1L1_Y109]	1.16	0.856	0.827	0.767	0.62	1.16	0.83	1.14	0.54	0.741	0.59	1.32	0.822	0.952	0.645	0.63
